Results from publication PMC12990809.

Legend:
Assay in all cases: pulldown
tardbpl (Danio rerio) = molecular target: T1, tardbpl (Danio rerio) (UniProt A0A8M1PDP8); settings: 20 nM protein, 1.5 uM RNA pool; 20 mM HEPES pH 7.8, 70 mM KCl, 10 mM NaCl, 10% glycerol, 2 mM DTT, 0.1 ug/uL BSA; 30 min, 4 C
T1 sequence: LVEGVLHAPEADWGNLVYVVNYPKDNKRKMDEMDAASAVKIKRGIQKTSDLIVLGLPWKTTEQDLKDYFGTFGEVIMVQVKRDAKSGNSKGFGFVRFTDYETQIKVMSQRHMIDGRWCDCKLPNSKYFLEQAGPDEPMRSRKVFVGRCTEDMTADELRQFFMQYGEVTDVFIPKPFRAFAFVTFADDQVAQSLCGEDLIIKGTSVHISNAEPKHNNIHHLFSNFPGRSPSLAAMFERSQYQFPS

[1] = molecular target: T2, LmjF.34.4560 (Leishmania major) (UniProt Q4Q285); settings: 20 nM protein, 1.5 uM RNA pool; 20 mM HEPES pH 7.8, 70 mM KCl, 10 mM NaCl, 10% glycerol, 2 mM DTT, 0.1 ug/uL BSA; 30 min, 4 C
T2 sequence: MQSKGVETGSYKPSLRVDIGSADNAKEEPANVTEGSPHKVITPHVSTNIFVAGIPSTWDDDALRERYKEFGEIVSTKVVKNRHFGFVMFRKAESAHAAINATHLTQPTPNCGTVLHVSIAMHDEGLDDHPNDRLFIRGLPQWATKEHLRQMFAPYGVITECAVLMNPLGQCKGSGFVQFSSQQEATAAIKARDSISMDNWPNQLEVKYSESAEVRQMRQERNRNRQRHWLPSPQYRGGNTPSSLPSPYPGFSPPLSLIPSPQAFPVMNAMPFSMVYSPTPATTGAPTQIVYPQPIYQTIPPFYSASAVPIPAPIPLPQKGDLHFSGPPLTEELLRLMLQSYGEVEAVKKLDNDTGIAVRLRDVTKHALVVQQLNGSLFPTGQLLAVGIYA

[2] = molecular target: T3, LmjF.25.0500 (Leishmania major) (UniProt Q4QA45); settings: 20 nM protein, 1.5 uM RNA pool; 20 mM HEPES pH 7.8, 70 mM KCl, 10 mM NaCl, 10% glycerol, 2 mM DTT, 0.1 ug/uL BSA; 30 min, 4 C
T3 sequence: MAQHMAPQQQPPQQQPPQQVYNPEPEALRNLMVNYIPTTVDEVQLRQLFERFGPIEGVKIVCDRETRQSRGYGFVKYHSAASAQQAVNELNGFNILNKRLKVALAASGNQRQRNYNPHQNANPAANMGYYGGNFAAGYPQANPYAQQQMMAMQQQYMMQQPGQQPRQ

hnrnpa0a (Danio rerio) = hnrnpa0a (Danio rerio) (UniProt Q6NYB0); settings: 20 nM protein, 1.5 uM RNA pool; 20 mM HEPES pH 7.8, 70 mM KCl, 10 mM NaCl, 10% glycerol, 2 mM DTT, 0.1 ug/uL BSA; 30 min, 4 C
[3] = molecular target: T4, aret (Drosophila melanogaster) (UniProt E1JHG6); settings: 20 nM protein, 1.5 uM RNA pool; 20 mM HEPES pH 7.8, 70 mM KCl, 10 mM NaCl, 10% glycerol, 2 mM DTT, 0.1 ug/uL BSA; 30 min, 4 C (protocol of this paper; not …); cited from earlier work
T4 sequence: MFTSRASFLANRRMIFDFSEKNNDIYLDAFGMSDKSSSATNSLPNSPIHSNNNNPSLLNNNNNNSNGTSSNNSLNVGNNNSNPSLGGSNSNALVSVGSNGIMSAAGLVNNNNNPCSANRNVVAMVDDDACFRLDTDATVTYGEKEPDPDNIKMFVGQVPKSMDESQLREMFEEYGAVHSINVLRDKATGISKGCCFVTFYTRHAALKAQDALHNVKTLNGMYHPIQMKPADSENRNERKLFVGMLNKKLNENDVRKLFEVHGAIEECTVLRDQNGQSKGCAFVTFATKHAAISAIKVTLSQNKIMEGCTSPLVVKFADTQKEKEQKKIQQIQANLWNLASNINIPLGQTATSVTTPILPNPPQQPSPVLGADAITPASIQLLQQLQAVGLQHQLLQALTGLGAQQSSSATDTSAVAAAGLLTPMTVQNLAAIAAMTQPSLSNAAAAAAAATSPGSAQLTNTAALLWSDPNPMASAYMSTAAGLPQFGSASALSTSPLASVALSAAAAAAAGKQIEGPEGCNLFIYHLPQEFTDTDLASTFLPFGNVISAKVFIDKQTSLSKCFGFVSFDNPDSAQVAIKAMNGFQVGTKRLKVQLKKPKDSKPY

[4] = molecular target: e_gw1.13.00.297.1 (Ostreococcus tauri) (UniProt A0A096P8F1); settings: 20 nM protein, 1.5 uM RNA pool; 20 mM HEPES pH 7.8, 70 mM KCl, 10 mM NaCl, 10% glycerol, 2 mM DTT, 0.1 ug/uL BSA; 30 min, 4 C
[5] = molecular target: T5, hnrnpa0 (Xenopus tropicalis) (UniProt A0A8J0QIP1); settings: 20 nM protein, 1.5 uM RNA pool; 20 mM HEPES pH 7.8, 70 mM KCl, 10 mM NaCl, 10% glycerol, 2 mM DTT, 0.1 ug/uL BSA; 30 min, 4 C
T5 sequence: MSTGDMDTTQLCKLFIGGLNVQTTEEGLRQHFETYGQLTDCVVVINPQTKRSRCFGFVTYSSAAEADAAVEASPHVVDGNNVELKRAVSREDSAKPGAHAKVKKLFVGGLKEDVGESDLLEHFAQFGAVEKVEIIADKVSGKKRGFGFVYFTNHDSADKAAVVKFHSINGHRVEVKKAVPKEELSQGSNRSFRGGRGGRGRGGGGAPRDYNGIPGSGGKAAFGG

[6] = molecular target: T6, LmjF.18.0190 (Leishmania major) (UniProt Q4QE23); settings: 20 nM protein, 1.5 uM RNA pool; 20 mM HEPES pH 7.8, 70 mM KCl, 10 mM NaCl, 10% glycerol, 2 mM DTT, 0.1 ug/uL BSA; 30 min, 4 C
T6 sequence: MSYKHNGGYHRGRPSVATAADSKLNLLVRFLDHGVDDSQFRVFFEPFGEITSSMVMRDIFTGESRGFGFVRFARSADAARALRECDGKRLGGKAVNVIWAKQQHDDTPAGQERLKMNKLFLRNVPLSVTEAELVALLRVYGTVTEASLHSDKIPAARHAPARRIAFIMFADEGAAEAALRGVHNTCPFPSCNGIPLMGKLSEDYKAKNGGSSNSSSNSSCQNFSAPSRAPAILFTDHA

[7] = molecular target: T7, Tb11.01.3940 (Trypanosoma brucei) (UniProt Q382W9); settings: 20 nM protein, 1.5 uM RNA pool; 20 mM HEPES pH 7.8, 70 mM KCl, 10 mM NaCl, 10% glycerol, 2 mM DTT, 0.1 ug/uL BSA; 30 min, 4 C
T7 sequence: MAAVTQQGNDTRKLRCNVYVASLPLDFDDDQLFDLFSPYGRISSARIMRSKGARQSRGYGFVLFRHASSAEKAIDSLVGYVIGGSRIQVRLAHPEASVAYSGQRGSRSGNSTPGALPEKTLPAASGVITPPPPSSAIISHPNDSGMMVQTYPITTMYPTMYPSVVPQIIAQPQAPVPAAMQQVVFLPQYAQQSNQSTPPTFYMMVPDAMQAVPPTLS

hnrnpa0a (Danio rerio), sequence (Q6NYB0 entry or part of it): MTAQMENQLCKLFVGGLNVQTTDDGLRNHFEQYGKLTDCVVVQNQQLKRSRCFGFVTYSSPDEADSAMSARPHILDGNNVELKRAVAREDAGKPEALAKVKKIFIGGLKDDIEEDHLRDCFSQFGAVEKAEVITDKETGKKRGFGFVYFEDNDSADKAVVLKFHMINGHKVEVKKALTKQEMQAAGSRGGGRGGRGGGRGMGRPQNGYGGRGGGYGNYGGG
e_gw1.13.00.297.1 (Ostreococcus tauri), sequence (A0A096P8F1 entry or part of it): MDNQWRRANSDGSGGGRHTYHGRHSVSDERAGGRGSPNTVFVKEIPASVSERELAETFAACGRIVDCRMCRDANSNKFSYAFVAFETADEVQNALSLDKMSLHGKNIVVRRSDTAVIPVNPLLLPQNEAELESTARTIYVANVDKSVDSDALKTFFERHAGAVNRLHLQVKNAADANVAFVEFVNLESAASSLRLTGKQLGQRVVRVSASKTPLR

UGAAUG [RNAcompete motif RNCMPT00683] showed a binding signal (z-score (mean of top ten 7-mers)) (tardbpl (Danio rerio)) of 11.3.

Substance ACAACU [RNAcompete motif RNCMPT00691] has a binding signal (z-score (mean of top ten 7-mers)) [1] of 18.4.

UAGUUU [RNAcompete motif RNCMPT00689] gave a binding signal (z-score (mean of top ten 7-mers)) [2] of 11.6.

Substance UAGGA [RNAcompete motif RNCMPT00677] has a binding signal (z-score (mean of top ten 7-mers)) (hnrnpa0a (Danio rerio)) of 9.94.

For UNUGUGU [RNAcompete motif RNCMPT00003], the binding signal (z-score (mean of top ten 7-mers)) [3] is given as 21.4.

In the case of AAUAAG [RNAcompete motif RNCMPT00681], the binding signal (z-score (mean of top ten 7-mers)) [4] is reported as 20.7.

AUUAGGA [RNAcompete motif RNCMPT00684] showed a binding signal (z-score (mean of top ten 7-mers)) [5] of 8.79.

CUCAUUU [RNAcompete motif RNCMPT00687] gave a binding signal (z-score (mean of top ten 7-mers)) [6] of 20.6.

In the case of CUUAACC [RNAcompete motif RNCMPT00695], the binding signal (z-score (mean of top ten 7-mers)) [7] is reported as 14.8.
